The values below come from article PMC4018254, “Bacterial Magnetosome Biomineralization - A Novel Platform to Study Molecular Mechanisms of Human CDF-Related Type-II Diabetes” (PLoS ONE, 2014).

This series deals with the molecule itself. Kind of series: SEC; Superdex200; elution volumes of the mutants compared with wild-type MamM-CTD; self-association (dimer).

B1: MamM-CTD (cytosolic C-terminal domain of the magnetosome CDF transporter MamM), wild type (domain or fragment, Magnetospirillum gryphiswaldense)
chain: EAVQNRIVEAAERVPGVRGVIHLRARYVGQDIWADMIIGVDPENTVEQAHEICEAVQAAVCGKIRRIESLHVSAEAREIGDTTKPSFSDQPLSFDEVMLSKVDN
notes: MamM, cation diffusion facilitator of Magnetospirillum gryphiswaldense, cytosolic C-terminal domain (CTD); also called wild-type MamM-CTD; apo-MamM-CTD; source: recombinant, purified; expression and purification 'performed as previously described [20], [29], [30]'
As usually defined, the stoichiometry N is the number of molecules, sites or subunits per partner or assembly. Consider B1, for which the “stoichiometry N” value stood at 2.

B2: MamM-CTD V260R mutant (domain or fragment, Magnetospirillum gryphiswaldense)
chain: EAVQNRIVEAAERVPGVRGVIHLRARYVGQDIWADMIIGVDPENTREQAHEICEAVQAAVCGKIRRIESLHVSAEAREIGDTTKPSFSDQPLSFDEVMLSKVDN
notes: MamM, cation diffusion facilitator of Magnetospirillum gryphiswaldense, cytosolic C-terminal domain (CTD) with V260R; The mutation mimics the R325 allele of human ZnT-8; source: recombinant, purified; expression, purification and site-directed mutagenesis 'performed as previously described [20], [29], [30]'
Regarding B2, the “stoichiometry N” value was found to be 2.

B3: MamM-CTD V260W mutant (domain or fragment, Magnetospirillum gryphiswaldense)
chain: EAVQNRIVEAAERVPGVRGVIHLRARYVGQDIWADMIIGVDPENTWEQAHEICEAVQAAVCGKIRRIESLHVSAEAREIGDTTKPSFSDQPLSFDEVMLSKVDN
notes: MamM, cation diffusion facilitator of Magnetospirillum gryphiswaldense, cytosolic C-terminal domain (CTD) with V260W; The mutation mimics the W325 allele of human ZnT-8; source: recombinant, purified; expression, purification and site-directed mutagenesis 'performed as previously described [20], [29], [30]'
For B3, the “stoichiometry N” value came to 2.
